Results reported in PMC3585155, “CELF Family RNA–Binding Protein UNC-75 Regulates Two Sets of Mutually Exclusive Exons of the unc-32 Gene in Neuron-Specific Manners in Caenorhabditis elegans”.

T1: FOX-1 (Caenorhabditis elegans, UniProt Q10572 1-429)
T1 sequence: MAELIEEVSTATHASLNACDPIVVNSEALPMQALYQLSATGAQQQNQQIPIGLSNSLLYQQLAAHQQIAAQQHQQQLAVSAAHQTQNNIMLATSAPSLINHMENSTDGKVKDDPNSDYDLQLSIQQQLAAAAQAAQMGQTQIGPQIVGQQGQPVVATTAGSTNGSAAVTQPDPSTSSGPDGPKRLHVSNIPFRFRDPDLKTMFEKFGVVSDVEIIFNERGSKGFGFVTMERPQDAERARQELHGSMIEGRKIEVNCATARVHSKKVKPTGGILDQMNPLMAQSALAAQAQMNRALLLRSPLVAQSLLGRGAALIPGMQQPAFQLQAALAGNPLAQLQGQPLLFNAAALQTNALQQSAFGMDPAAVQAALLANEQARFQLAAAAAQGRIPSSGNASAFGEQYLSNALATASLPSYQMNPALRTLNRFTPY

T2: ASD-1 (Caenorhabditis elegans, UniProt G5EEW7 1-404)
T2 sequence: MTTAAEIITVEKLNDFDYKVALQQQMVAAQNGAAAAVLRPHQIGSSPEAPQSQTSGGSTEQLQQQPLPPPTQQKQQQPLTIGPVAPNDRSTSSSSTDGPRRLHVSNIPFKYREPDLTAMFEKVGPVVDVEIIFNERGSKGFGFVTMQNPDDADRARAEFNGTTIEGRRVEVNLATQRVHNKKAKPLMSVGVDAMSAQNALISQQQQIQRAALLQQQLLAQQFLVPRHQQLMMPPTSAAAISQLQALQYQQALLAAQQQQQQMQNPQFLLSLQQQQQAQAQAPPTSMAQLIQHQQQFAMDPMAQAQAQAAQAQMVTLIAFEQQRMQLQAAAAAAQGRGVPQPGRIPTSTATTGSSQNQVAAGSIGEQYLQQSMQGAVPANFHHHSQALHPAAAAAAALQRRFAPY


Key:
Assay in all cases: EMSA; EMSA as described previously (ref 55); buffer, salt, pH and temperature not given
Conditions in all cases: protein: recombinant; tags: FLAG; label: 32P
[1] = target: UNC-75(417-514) RRM3 (Caenorhabditis elegans, UniProt G5EE68 417-514)
[2] = target: UNC-75(1-114) RRM1 (Caenorhabditis elegans, UniProt G5EE68 1-114)
[3] = target: UNC-75 (Caenorhabditis elegans, UniProt G5EE68 1-514)
[4] = target: UNC-75(121-213) RRM2 (Caenorhabditis elegans, UniProt G5EE68 121-213)
[5] = target: UNC-75(L431F) (Caenorhabditis elegans, UniProt G5EE68 1-514, L431F)
[6] = target: T1, FOX-1
[7] = target: T2, ASD-1

Binder | binding result [1] | binding result [3] | also measured
Probe 2-1-1 (also printed 2-2-1) (ssRNA) RNA: GGGAGAUUAGCACGCACCCGCCUUCUACUGUCCCGUUACUUUUUGUUGUGUUGU | binds | binds | binding result [2]: no binding; binding result [4]: no binding; binding result [5]: no binding
Probe 2-1-1c (ssRNA) RNA: GGGAGAUUAGCACGCACCCGCCUUAUAAUAUCCCGUUACUUUUUGUUGUGUUGU | binds | binds | 
Probe 2-1-1e (ssRNA) RNA: GGGAGAUUAGCACGCACCCGCCUUCUACUGUCCCGUUACUUUUUAUUAUAUUAU | no binding | no binding | 
Probe 2-1-1d (ssRNA) RNA: GGGAGAUUAGCACGCACCCGCCUUCUACUGUAAAAUUAAUUUUUGUUGUGUUGU | binds | binds | 
Probe 2-1-1b (ssRNA) RNA: GGGAGAUUAGCACGCAAAAAAAUUCUACUGUCCCGUUACUUUUUGUUGUGUUGU | binds | binds | 
Probe 2-1-1a (ssRNA) RNA: GGGAGAUUAAAAAAAACCCGCCUUCUACUGUCCCGUUACUUUUUGUUGUGUUGU | binds | binds | 
GGGAGAGGUGAUGGGUAGUUUUUGCAUGAUUGU (ssRNA) [intron 7b WT probe] |  |  | binding result [6]: binds; binding result [7]: binds
